# Data taken from the DeepSol protein solubility set.
# Test: soluble on expression in E. coli; label from the status in PepcDB or PDB records
row,Sequence,soluble on expression in E. coli
1,MGSDKIHHHHHHMGNVSTFSIPGPARIPSAATTPAPHPWNRYVALGDSFTEGYGDPEPQSPGGVRGWADRVAEELSLGHQDFAYANLAVRGRLLQQIMDDQLGPALELRPDLVTLSAGGNDLVFRGSDPDKLAERLDPAIGLLSATGATVVLFTGPDWGNTPVFGRIRGKVAIFNENLRTIAARHDGVVADLWTLRQLAAPHMWDPDRLHFSPLGHHTIAAMVLETLNVPHTLKPLEPKVLPVSSWREARSSDLVWAKDYLFPWVVRRVRQRPANLGLKAKRPEPGPIFGPGVAHGPFPAGPLTAGKP,not soluble
2,MGSDKIHHHHHHMMKISFIIATLNSGGAERALVTLANALCKEHEVSIIKFHAGESFYKLENEVKVTSLEQFRFDTLYHKIASRFKKFFALRKALKESKSDVFISFLDTTNIACIAAKIGLKTPLIISEHSNEAYLKPKIWRFLRRVSYPFCDALSVLGSSDKVYYERFVKRVKLLLNPCHFSDEISFDSSFEKENLVLFIGRLDHNKNPVMFLKAIAHLDKNLQENYKFVIAGDGQLRQELEYKVKSLGIKVDFLGRVENVKALYEKAKVLCLCSFVEGLPTVLIESLYFEVCRISSSYYNGAKDLIKDNHDGLLVGCDDEIALAKKLELVLNDENFRKELVNNAKQRCKDFEISHIKEEWLKLIAEVKNA,not soluble
3,AIAYASETASTQGLPALELDPEELLAQVQLLRAAVEGSRRESRELVGALERERRLNLEMRQRFERQFAAVSDQLLQLNHLQKESEALLQSLQEQLNEAELQKNAAQRELACVQRQLSLARAEADAGKRVLTTIAEKEALLRKTSQANADLQQIVMHLQAELRNSELQPSTSNASEERLHEAEIPSLADRDAYQTLQQTIEKLSAERDMWYHECARAKEESLRLQQDAERLRGLLDEQQRVHTTTQTLLQDRHLLMRRIIAALAEKYLMEKLPNQHYTQEIDSSPFQARGGTSVQEAHKHERLRRARSF,soluble
4,MAEIKHYQFNVVMTCSGCSGAVNKVLTKLEPDVSKIDISLEKQLVDVYTTLPYDFILEKIKKTGKEVRSGKQLAREVILAVHGMTCSACTNTINTQLRALKGVTKCDISLVTNECQVTYDNEVTADSIKEIIEDCGFDCEILRDS,soluble
5,MGSDKIHHHHHHMNLKHIEAFRAVMVSGSMTAAAKALFTSQPNVSRLIAQLERDTGLQLFQRSGVRLIPTSEGEAFFREVERAFVGLQGLANAAAQIRNLGSGRLRIAAMPSAGMTLVPHAIKRFVELFPDVTVSLHVNTSGTVNHWTASQFCDLGVAVYVSEASDCEVEQLSDLAAVCVMPAAHRLAAKRSIKPEDLEGESFISLCHGDGTRALMDEVFQRAGVQRVMAIEAQYTAMCCEMVRHGMGVTLAHPIVARDFAGPDIAIRPFLPATRFQTYLLFPPHRPRERLASAFVEVLRELHDELLAEVVVPTPSVGRRRVVRSASKG,not soluble
6,SADREGSVRVVGTAHVSSDSVEEVERVIDDEHPDTVAVELDEGRFRQMQGDAPDDLDATDLLKGSMAFQFLAYWLLSYAQRRLGEKFGIEPGADMQAAVDAANTAGADVALVDRDIQVTIQRFWARMSLPEKLRMGGELALGVTDSLTL,not soluble
7,MSLEDGYKVEVGKNAYLPCSYTLPTSGTLVPMCWGKGFCPWSQCTNELLRTDERNVTYQKSSRYQLKGDLNKGDVSLIIKNVTLDDHGTYCCRIQFPGLMNDKKLELKLDIKAALVPR,soluble
8,MGSDKIHHHHHHMKFAVSSKGDQVSDTLKSKIQAYLLDFDMELDENEPEIVISVGGDGTLLYAFHRYSDRLDKTAFVGVHTGHLGFYADWVPHEIEKLVLAIAKTPYHTVEYPLLEVIVTYHENEREERYLALNECTIKSIEGSLVADVEIKGQLFETFRGDGLCLSTPSGSTAYNKALGGAIIHPSIRAIQLAEMASINNRVFRTVGSPLLLPSHHDCMIKPRNEVDFQVTIDHLTLLHKDVKSIRCQVASEKVRFARFRPFPFWKRVQDSFIGKGE,not soluble
9,MKDRFELVSKYQPQGDQPKAIEKLVKGIQEGKKHQTLLGATGTGKTFTVSNLIKEVNKPTLVIAHNKTLAGQLYSEFKEFFPNNAVEYFVSYYDYYQPEAYVPQTDTFIEKDASINDEIDKLRHSATSALFERRDVIIIASVSCIYGLGSPEEYREMVVSLRTEMEIERNELLRKLVDIQYARNDIDFQRGTFRVRGDVVEIFPASRDEHCVRVEFFGDEIERIREVDALTGEILGDRDHVAIFPASHFVTRAEKMEKAIQNIEKELEEQLKVMHENGKLLEAQRLEQRTRYDLEMMREMGFCSGIENYSRHLTLRPPGSTPYTLLDYFPDDFMIVVDESHVTIPQVRGMFNGDQARKQVLVDHGFRLPSALDNRPLRFEEFEKHMHNIVYVSATPGPYEIEHTDEMVEQIIRPTGLLDPLIDVRPIEGQIDDLIGEIQARIERNERVLVTTLTKKMSEDLTDYLKEIGIKVNYLHSEIKTLERIEIIRDLRLGKYDVLVGINLLREGLDIPEVSLVAILDADKEGFLRSERSLIQTIGRAARNAEGRVIMYADKITKSMEIAINETKRRREQQERFNEEHGITPKTINKEIRDVIRATVAAEDKAEYKTKAAPKLSKMTKKERQKVVEQMEHEMKEAAKALDFERAAELRDLLLELKAEG,soluble
10,MAGDPMKKTLTVTVSSVLAFLALNNAAHAQQHGTQVKTPVQHNYVSNVQAQTQSPTTYTVVAGDSLYKIALEHHLTLNQLYSYNPGVTPLIFPGDVISLVPQNKVKQTKAVKTPVRKASQAKKVVKQPVQQASKKVVVKQAPKQAVAKTVNVAYKPAQVQKSVPTVPVAHNYNKSVANRGNLYAYGNCTYYAFDRRAQLGRSIGSLWGNANNWNYAAKVAGFKVDKTPEVGAIFQTAAGPYGHVGVVESVNPNGTITVSEMNYAGFNVKSSRTILNPGKYNYIHLEHHHHHH,not soluble
11,MSYDANLTKYMDFLVKKTKNAAEPTTFKEIFDEYSRLDPDRSTYSMCYDKFHHRLAPIMNELNTYSIRERVRVMLTMGGKVSKDFLTTIEKLGTVQLDEKRRILKYASKDGKFKIEGARSEFMDFLIQQTRDAVRPMTSTSIAKEFCRIKDRQVSVDTFNKKFRRNLAPNMSRWSSYLLGDRIRMMFVLKGTVRTDFLAEIEKSGTVQLDDQRRIVRYASNDGMIELEEKTSGVKRRRSTKSSNTPTKRREITENELSDTDDVEVMEIVDGYVEQESASFDFEELVNREASYNLDQGHLYREILEAPLLENRDSKFNPFNAKSGRQAEVQRSGTFLNESEGTSTNAQESFVFRGFLKQEPVFEQFHIQNMSNNLVNLPIPPEIEETPVQEGHHVEPSGITGSDGIRLHKFLNSLELMLTSLESDTLNDLMQEIEEIRRRTDEILPSELVITTLQTFFLGITRKFRPETSAPSKSAKECLRIFKYALLWLKNPLLYDLQKRVQDEIENHEADGKVLLIADVQQGIRNILFTVV,not soluble
12,MGSDKIHHHHHHMSTVSAQEAVSLREAAERRSQFARVPARSVSAPPRKKWFRSKQQLSGAADGMDGSSRAGSQEIVCDEFTKKLVAAITTWHDIHSSLLQLSIERSSNDSNEEHENVSVSSESSWSSASDSESDEDSATGRDSTNNHLSASAARFSISNPDLTNCQIKQMFPEMADHWR,not soluble
13,MGSDKIHHHHHHMIGVRLLVKMSFRSGFRVGRGNETDSTLPTIHSDTIYGAVVYHAFKWSEKAEDFAKKLKVSSLLFVRGDRLLVPKPFLYNTYSLEEDDEESPKELKKASYVFLDKLADYRSIKEASGAVCKENPVEIVRIPRNSLDRITSSSNLYFVEVAFVKEGFTPAFLAEFPDEYEGLFKTAVKSLGDSGIGADSTYGYGLFNAEFESAPDFPEEGEYYLTLSLFVPSAEERSKMNEGYYRVVKRRGVKRDEMKVKKEISYVQEGSVFPFKPEGRGVLKIEDYFVQTSPLCVAFGGDGK,not soluble
14,MGSDKIHHHHHHMNNESLTLDAYPVEVEFPDIRPYAEGNCGIPYVFTFDSGVAGPHVMVNALTHGNEVCGAITVKGLLDAGVKPRRGRVTFAFANVDAYACFDPARPDASRFVDQDFNRVWTSAVLDDASRDSSELRRARAMRPVIDTVDLLLDLHSMHEKSRPLIVSGPLDKGIALARALGAPADVIVDEGHPEGRRMRDYADFGDPASARNALLIECGQHWETSAVTVARDSAARFLLNAGVIDAQDVPTGWLQPLAATQRVVRVTEPVVANSMDFRFAGPYTGLETFMEAGTVIGWRDGEPVVTPYPNCVLVMPSLRQLRPGVTVVRLGQLEA,not soluble
15,MVNPFIKEAKEKMKRTLEKIEDELRKMRTGKPSPAILEEIKVDYYGVPTPVNQLATISISEERTLVIKPWDKSVLSLIEKAINASDLGLNPINDGNVIRLVFPSPTTEQREKWVKKAKEIVEEGKIAIRNIRREILKKIKEDQKEGLIPEDDAKRLENEIQKLTDEFIEKLDEVFEIKKEEIMEF,soluble
16,MKHESTKIPLVIFMHIPKTGGITLRNILDQQYRSEHILRLPQKNKLDNLLQKKGANIKKLQCVYGHHRFGVHEYFQQPFTYITMLRHPVERIISTYYFILQNERNRMHQKVKPLTFEQFVQSTDPDLQVPLTNHQTRYLSGERKPNLNKALQHMDTHFSVVGITELYNESLFIMKKKLGWDHISYQKKNVTKKRKRQTDIGLDTIEIIKRKNPLDLHLYETAKEKLQEHIKRLDSGARKELQQFLQDQNGFGPHGMAGDPLEHHHHHH,soluble
17,MGIKGDKKATSDQARLARLTLEGNSGNEEDIQFMIKTIIETTGCTQAQAEIALLDTDNNLYGAIDHILDAGDKLDSWTEQKGAKKEKKKPEEGSYNNRGFVARGRGGGTGFVDRGGRGRSNGAPRESRDNNRDNRDNKEGAAPRSTRGGFEKPYVGRGGRGGARGGYSRAVAPSSALEPDAFTADLDENQTKVDTTVTEVQPPVEESVTATVPTSSAPAPISFAAVAAAAHRKEALRKHQAQNPQPAAPPRRSLSPQPPLPSVAPVKEEPAAAPVFFEPETSHQPEKEDGFFQNESSVLAEEQTPNVSTHHDENVQSTPEPNQAWTTQLKTDLGIGLSEAPGLGLSPIPSAAPVQIIPDPGVEFVGTTAPTNIHDYSFGFVEAAPSPQLPSTESSAASISNASENIFNSSRIMPKQVEPERTSIPNGDYNLKSTSPPLSYGQSNRGLSYDTSSASYQPTDRMAPNKFNNSGPLPTQQSAQQHQPQQQQQQAPQQPVQQQQQTPPAQSQPTGHPQQHPHMMFTQQLPYAPYMNNYMNMYNPMPGVRDEQYTAALMQYGMGVDLTSLLPTAPLSQAASAQQVQSGQQRETHGLMDFNKFGSQSSRDQQPQQASNVGPPPGFQATNYMQQPNLSSLFMQQYSPAPHQFTPFMNMMPNVGSSAGGRQLYGQDDERKSYDKMSGSKPAAQQNQHSQYQHNGGNLGKYGMNKPYNWSN,not soluble
18,MAHHHHHHMYNFFASVNAPSTPPQKQPQVEPSLPPSACHHHVAASSLLDGMTAHNASLWLLNASQQRSLSYAHSGGGGDNLAGAEQEKRTAASQFYSTFPTAAAPPPSSGVQSLHGVGQQPAQQPHKHLCTSILQSYEHVGNSATPAPGLSSSLPLQEHQSSTWVTLRGGSLRMQLDGVPYSPFASTNASAASQPPDAAHGNEQYYDSTSHHRGYSASSASSIRHTLQVPASPQQQHQQQRLPISSSVWTAATPATAMPASLFASSSIRPLTNTTYPGYSCDWSGNALPTLPAAVPAPYVSGAALPVSSRSQTTYSVMPQPPQSGQPCSPTAHPATHSIMILHPTLDRGTAAILQASADAVNTPLHCLTDVKASEISGTTHYLEVVQGGGSVGDNSKHSYPSSIPIASRQPQPPLQQYYLQPTPQQHQQGQQLAAEQPPVHSCFLTNDGNMSHFVNHTTAAGAIIQPPSSMLSDIASLASLSSRTAGAGRSGAWQQPSTADMGSYKDQSSKLQLQQQQQQQQQQRRPVSAARQVTYTRGIPRRNRDRAVLFVGQLNYEATEADVSQVFSCYGKPLSVVVLKDKGKATKKGGAGGITGGSAATHRKVGGSAFVTYGTTLEADTAIMALHGRYNAKGDDVENVDNSKYLQVSYGQQTGLISAFGMMHAEKLHASKPENPIPLLVKDRTNGKL,not soluble
